Laboratory results published in paper PMC12450071.

Biological target: JUNV GP1 (receptor-binding domain), subunit within the GPC on PV membranes (Junin virus strain MC2)
Assay: cryo-EM structure

Substance: JUNV GP1 (receptor-binding domain), subunit within the GPC on PV membranes (domain or fragment)
- stoichiometry N: 3
